{
  "source": "patent US20240192215A1",
  "about": "(E AND S HEALTHCARE, published 2024)",
  "key": {"[1]": {"molecular_target": "T1, Peptide_005 (human)", "T1 construct": "15-mer on microarray; not native form, recombinant insert region", "T1 peptide": "ADVHSQHHHHHHHHV", "assay": "peptide microarray, 0.0016 ug/mL", "method": "(§1) 5, 1, 0.2, 0.04, 0.008 and 0.0016 μg/mL serial dilutions were incubated on a single multi-well microarray slide at 30° C. for 1 hour. The slide includes 21 individual mini-arrays (one mini-array per sample dilution).\n(§2) DyLight 650 was used as a label. False-positive binding to a peptide was evaluated by performing one additional control incubation in which only a secondary antibody was applied on the same microarray slide. Before performing each step, the microarrays were washed with a washing buffer."}, "[2]": {"molecular_target": "T2, Peptide_004 (human)", "T2 construct": "15-mer on microarray; not native form, recombinant insert region", "T2 peptide": "AADVHSQHHHHHHHH", "assay": "peptide microarray, 0.0016 ug/mL", "method": "as §1, §2"}, "[3]": {"molecular_target": "T3, Peptide_022 (human)", "T3 construct": "15-mer of hTrx1 on microarray", "T3 peptide": "IESKTAFQEALDAAG", "assay": "peptide microarray, head 0.08 ug (text 0.008 ug/mL)"}, "[4]": {"molecular_target": "T4, Peptide_018 (human)", "T4 construct": "15-mer on microarray; not native form, includes recombinant insert region; also called HVKQIESKTAFQEAL", "T4 peptide": "HVKQIESKTAFQEAL", "assay": "peptide microarray, 0.0016 ug/mL", "method": "as §1, §2"}, "[5]": {"molecular_target": "T5, Peptide_084 (human)", "T5 construct": "15-mer of hTrx1 on microarray", "T5 peptide": "SECEVKCMPTFQFFK", "assay": "peptide microarray, 0.0016 ug/mL", "method": "as §1, §2"}, "[6]": {"molecular_target": "T6, Peptide_025 (human)", "T6 construct": "15-mer of hTrx1 on microarray", "T6 peptide": "KTAFQEALDAAGDKL", "assay": "peptide microarray, 0.0016 ug/mL", "method": "as §1, §2"}, "[7]": {"molecular_target": "T3, Peptide_022", "assay": "peptide microarray, 0.0016 ug/mL", "method": "as §1, §2"}, "[8]": {"molecular_target": "T7, Peptide_013 (human)", "T7 construct": "15-mer on microarray; not native form, includes recombinant insert region", "T7 peptide": "HHHHHHVKQIESKTA", "assay": "peptide microarray, 0.0016 ug/mL", "method": "as §1, §2"}, "[9]": {"molecular_target": "T8, Peptide_023 (human)", "T8 construct": "15-mer of hTrx1 on microarray", "T8 peptide": "ESKTAFQEALDAAGD", "assay": "peptide microarray, 0.0016 ug/mL", "method": "as §1, §2"}, "[10]": {"molecular_target": "T9, Peptide_014 (human)", "T9 construct": "15-mer on microarray; not native form, includes recombinant insert region", "T9 peptide": "HHHHHVKQIESKTAF", "assay": "peptide microarray, 0.0016 ug/mL", "method": "as §1, §2"}, "[11]": {"molecular_target": "T10, Peptide_051 (human)", "T10 construct": "15-mer of hTrx1 on microarray", "T10 peptide": "PCKMIKPFFHSLSEK", "assay": "peptide microarray, 0.0016 ug/mL", "method": "as §1, §2"}, "[12]": {"molecular_target": "T11, Peptide_045 (human)", "T11 construct": "15-mer of hTrx1 on microarray", "T11 peptide": "SATWCGPCKMIKPFF", "assay": "peptide microarray, 0.0016 ug/mL", "method": "as §1, §2"}, "[13]": {"molecular_target": "T12, Peptide_094 (human)", "T12 construct": "15-mer of hTrx1 on microarray", "T12 peptide": "FQFFKKGQKVGEFSG", "assay": "peptide microarray, 0.0016 ug/mL", "method": "as §1, §2"}, "[14]": {"molecular_target": "T13, Peptide_015 (human)", "T13 construct": "15-mer on microarray; not native form, includes recombinant insert region", "T13 peptide": "HHHHVKQIESKTAFQ", "assay": "peptide microarray, 0.0016 ug/mL", "method": "as §1, §2"}, "[15]": {"molecular_target": "T14, Peptide_095 (human)", "T14 construct": "15-mer of hTrx1 on microarray", "T14 peptide": "QFFKKGQKVGEFSGA", "assay": "peptide microarray, 0.0016 ug/mL", "method": "as §1, §2"}, "[16]": {"molecular_target": "T15, Peptide_021 (human)", "T15 construct": "15-mer of hTrx1 on microarray", "T15 peptide": "QIESKTAFQEALDAA", "assay": "peptide microarray, 0.0016 ug/mL", "method": "as §1, §2"}, "[17]": {"molecular_target": "T16, Peptide_092 (human)", "T16 construct": "15-mer of hTrx1 on microarray", "T16 peptide": "PTFQFFKKGQKVGEF", "assay": "peptide microarray, 0.0016 ug/mL", "method": "as §1, §2"}, "[18]": {"molecular_target": "T17, Peptide_019 (human)", "T17 construct": "15-mer of hTrx1 on microarray", "T17 peptide": "VKQIESKTAFQEALD", "assay": "peptide microarray, 0.0016 ug/mL", "method": "as §1, §2"}, "[19]": {"molecular_target": "T18, Peptide_012 (human)", "T18 construct": "15-mer on microarray; not native form, includes recombinant insert region", "T18 peptide": "HHHHHHHVKQIESKT", "assay": "peptide microarray, 0.0016 ug/mL", "method": "as §1, §2"}, "[20]": {"molecular_target": "T19, Peptide_086 (human)", "T19 construct": "15-mer of hTrx1 on microarray", "T19 peptide": "CEVKCMPTFQFFKKG", "assay": "peptide microarray, 0.0016 ug/mL", "method": "as §1, §2"}, "[21]": {"molecular_target": "T20, Peptide_020 (human)", "T20 construct": "15-mer of hTrx1 on microarray", "T20 peptide": "KQIESKTAFQEALDA", "assay": "peptide microarray, 0.0016 ug/mL", "method": "as §1, §2"}, "[22]": {"molecular_target": "T21, Peptide_085 (human)", "T21 construct": "15-mer of hTrx1 on microarray", "T21 peptide": "ECEVKCMPTFQFFKK", "assay": "peptide microarray, 0.0016 ug/mL", "method": "as §1, §2"}, "[23]": {"molecular_target": "T22, Peptide_024 (human)", "T22 construct": "15-mer of hTrx1 on microarray", "T22 peptide": "SKTAFQEALDAAGDK", "assay": "peptide microarray, 0.0016 ug/mL", "method": "as §1, §2"}, "[24]": {"molecular_target": "T23, Peptide_093 (human)", "T23 construct": "15-mer of hTrx1 on microarray", "T23 peptide": "TFQFFKKGQKVGEFS", "assay": "peptide microarray, 0.0016 ug/mL", "method": "as §1, §2"}},
  "data": [
    {"binder": "monoclonal antibody B266-1 (antibody, human IgG1, B266 with the Fc part changed to human IgG1; also called B266-1 (Trx1-hIgG1); B266-1 (hTrx1-hIgG1)) light: QIVLTQSPAIMSASPGEKVTMTCSASSRISYMYWYQQKPGTSPKRWIYDTSKLASGVPARFSGSGSGTSYSLTISTMEAEDAATYYCHQRSSYPTFGAGTKLELKSVAAPSVFIFPPSDEQLKSGTASVVCLLNNFYPREAKVQWKVDNALQSGNSQESVTEQDSKDSTYSLSSTLTLSKADYEKHKVYACEVTHQGLSSPVTKSFNRGEC heavy: not shown", "values": [
      {"measurement": "signal (blank-control = 1)", "setting": "[1]", "value": 1.6},
      {"measurement": "signal (blank-control = 1)", "setting": "[2]", "value": 0.99}
    ]},
    {"binder": "monoclonal antibody B264 (antibody, mouse IgG1, kappa, V domains shown, also called AB264; B264 (Trx1-mIgG1)) VH: QVQLQQSGAELARPGASVKMSCKASGYTFTSYTMHWVKQRPGQGLEWIGYINPTSDYTNYNQKFKDKATLTADKSSSTAYMQLSSLTSEDSAVYFCASEGGFLYYFDYWGQGTTLTVSS VL: DVLMTQTPLSLPVSLGDQASISCRSSQSIVHSNGNTYLEWYLQKPGQSPKLLIYKVSNRFSGVPDRFSGSGSGTDFTLKISRVEAEDLGVYYCFQGSHVPYTFGGGTKLEIKR", "values": [
      {"measurement": "signal (blank-control = 1)", "setting": "[3]", "value": 1},
      {"measurement": "signal (blank-control = 1)", "setting": "[4]", "value": 0.68},
      {"measurement": "signal (blank-control = 1)", "setting": "[5]", "value": 0.97},
      {"measurement": "signal (blank-control = 1)", "setting": "[6]", "value": 0.88},
      {"measurement": "signal (blank-control = 1)", "setting": "[7]", "value": 0.72},
      {"measurement": "signal (blank-control = 1)", "setting": "[8]", "value": 0.75},
      {"measurement": "signal (blank-control = 1)", "setting": "[9]", "value": 0.78},
      {"measurement": "signal (blank-control = 1)", "setting": "[10]", "value": 0.69},
      {"measurement": "signal (blank-control = 1)", "setting": "[11]", "value": 0.58},
      {"measurement": "signal (blank-control = 1)", "setting": "[12]", "value": 4.08},
      {"measurement": "signal (blank-control = 1)", "setting": "[13]", "value": 0.62},
      {"measurement": "signal (blank-control = 1)", "setting": "[14]", "value": 0.58},
      {"measurement": "signal (blank-control = 1)", "setting": "[15]", "value": 1.07},
      {"measurement": "signal (blank-control = 1)", "setting": "[16]", "value": 0.73},
      {"measurement": "signal (blank-control = 1)", "setting": "[17]", "value": 1.86},
      {"measurement": "signal (blank-control = 1)", "setting": "[18]", "value": 0.85},
      {"measurement": "signal (blank-control = 1)", "setting": "[19]", "value": 0.81},
      {"measurement": "signal (blank-control = 1)", "setting": "[20]", "value": 0.82},
      {"measurement": "signal (blank-control = 1)", "setting": "[21]", "value": 0.71},
      {"measurement": "signal (blank-control = 1)", "setting": "[22]", "value": 0.65},
      {"measurement": "signal (blank-control = 1)", "setting": "[23]", "value": 0.72},
      {"measurement": "signal (blank-control = 1)", "setting": "[24]", "value": 1.12}
    ]}
  ]
}
